The target of assay [1] is LexADB/WT-INS (containing residues 250-266 of WT1) (human) (UniProt P19544). Nature of the assay: yeast two-hybrid, LexA DNA binding domain fusion against Gal4 activation domain vector alone.
Assay [2] deals with LexADB/WT-N (LexA DNA binding domain fused to residues 85-179 of human WT1) (human) (UniProt P19544). Described as above.
Assay [3] addresses LexADB/lamin C hybrid (Escherichia coli (strain K12)). The assay is described as above.
The target in assay [4] is LexADB/WT-N (LexA DNA binding domain fused to residues 85-179 of human WT1) (human) (UniProt P19544). The assay can be described thus: yeast two-hybrid, LexA DNA binding domain fusion against Gal4 activation domain fusion.
The target in assay [5] is LexADB/lamin C hybrid (Escherichia coli (strain K12)). Described as above.
Assay [6] has as its target WT1, Wilm's tumor suppressor gene product (full length) (human) (UniProt P19544).

Sequence of hUBC-9, human ubiquitin conjugating enzyme (P63279 whole entry): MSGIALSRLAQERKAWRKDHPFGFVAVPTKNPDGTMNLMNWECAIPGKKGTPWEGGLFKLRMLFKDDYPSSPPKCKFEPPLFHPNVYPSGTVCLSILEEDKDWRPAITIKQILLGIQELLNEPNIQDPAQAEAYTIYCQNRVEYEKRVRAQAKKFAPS
Sequence of hUBC-9 fused with the Gal4 activation domain (P63279 whole entry, the tested form may be a part): as the sequence (P63279 whole entry) above

For “Gal4 activation domain vector alone (from UniProt P04386)”, the β-Galactosidase activity in assay [1] was 0.2 units; in assay [2], 0.3 units; in assay [3] it was 0.3 units.

For “hUBC-9 fused with the Gal4 activation domain”, the figures for the β-Galactosidase activity in assay [4] and in assay [5] were 57.9 units and 1.5 units, respectively.

Consider “hUBC-9, human ubiquitin conjugating enzyme”, for which the relative CAT activity (PDGF A-chain promoter driven CAT reporter, 293 cells) (% relative activity) in assay [6] was 2.

For the origin of these results see US5770720.
